In assay [1] the target is soluble form of vesicular stomatitis virus (VSV) glycoprotein G ectodomain (Gth, aa residues 1–422) (vesicular stomatitis virus (Mudd-Summer strain, Indiana serotype)). Description: AUC.
Assay [2] has the same target. The assay is described as follows: AUC; sedimentation velocity, pH 6.7, Gth at 0.4 mg/ml, 45,000 rpm, 15°C.
The target is the same in assay [3]. Description: AUC; sedimentation velocity, pH 6.7, Gth at 1.6 mg/ml, 45,000 rpm, 15°C.

On to “soluble form of vesicular stomatitis virus (VSV) glycoprotein G ectodomain (Gth, aa residues 1–422) (domain or fragment)”, for which, in assay [1], the fraction of the species of about 320 kDa at pH 6.0 was 30%; the fraction of the species of about 1,600 kDa at pH 6.0 came out at 70%; the fractional concentration of the 10.0 S species at 0.4 mg/ml, pH 5.7 worked out at 71%; the fractional concentration of the 10.0 S species at 1.6 mg/ml, pH 5.7 came out at 55%. In assay [1], the fractional concentration of the 21.0 S species at 0.4 mg/ml, pH 5.7 is 29% and the fractional concentration of the 21.0 S species at 1.6 mg/ml, pH 5.7 amounted to 45%. In assay [2], the fractional concentration of the 21.0 S species at 0.4 mg/ml, pH 6.7 was 13%. In assay [3], the fractional concentration of the 10.0 S species at 1.6 mg/ml, pH 6.7 was 40% and the fractional concentration of the 21.0 S species at 1.6 mg/ml, pH 6.7 stood at 24%.

Values taken from paper PMC3285605.
